Assay results from article PMC4646777 (Science Advances, 2015).
Changes are numbered by the printed parent chain.

B1: OsTPR2 TOPLESS domain (TPD), TPR2(1–210), tag removed (domain or fragment, rice, UniProt Q5NBT9 1-210, looked up)
chain: MSSLSRELVFLILQFLDEEKFKETVHKLEQESGFFFNMKYFEEKVHAGEWDEVEKYLSGFTKVDDNRYSMKIFFEIRKQKYLEALDRHDRAKAVDILVKDLKVFSTFNEELYKEITQLLTLENFRENEQLSKYGDTKSARSIMLIELKKLIEANPLFREKLVFPTLKASRLRTLINQSLNWQHQLCKNPRPNPDIKTLFTDHTCTPPNGA
B2: Arabidopsis TPR4 TOPLESS domain (TPD), TPR4(1–209), tag removed (domain or fragment, UniProt Q27GK7 1-209, looked up)
chain: MSSLSRELVFLILQFLDEEKFKDTVHRLEKESGFFFNMRYFEDSVTAGEWDDVEKYLSGFTKVDDNRYSMKIFFEIRKQKYLEALDKKDHAKAVDILVKELKVFSTFNEELFKEITMLLTLTNFRENEQLSKYGDTKSARGIMLGELKKLIEANPLFRDKLQFPSLKNSRLRTLINQSLNWQHQLCKNPRPNPDIKTLFVDHTCGHPNG
B3: VP16-OsTPR2 full length (natural protein, rice, UniProt Q5NBT9 1-1129, looked up)
chain: MSSLSRELVFLILQFLDEEKFKETVHKLEQESGFFFNMKYFEEKVHAGEWDEVEKYLSGFTKVDDNRYSMKIFFEIRKQKYLEALDRHDRAKAVDILVKDLKVFSTFNEELYKEITQLLTLENFRENEQLSKYGDTKSARSIMLIELKKLIEANPLFREKLVFPTLKASRLRTLINQSLNWQHQLCKNPRPNPDIKTLFTDHTCTPPNGARASPVSVPLAAVPKAGGTYPPLTAHTPFQPPPAGPSLAGWMANAAAATSSVPSAVVAASSLPVPPNQAVPIMKRPTITDYQSAESEQLMKRLRPSGHGVDEATYPAPIPQPLWSVEDLPRTVACTLSQGSSVTSMDFHPTRHTLLLVGSTNGEITLWEVGMRERLFSKPFKIWDIQACSPQFQSVAKESSISINRVTWSPDGDLIGVAFAKHLIHLHAYQQPNETRQVLEIDAHSGAVNDIAFSRPNKQLCVVTCGDDRLIKVWDMHGQKLFSFEGHEAPVYSICPHHKESIQFIFSTSLDGKIKAWLYDHMGSRVDYDAPGKWCTTMLYSADGTRLFSCGTSKDGDSYLVEWNESEGSIKRTYSGFRKKSAGVGVVQFDTAQNHILAAGEDNQIKFWDVDNTTMLSSTEADGGLPGLPRLRFNKEGNLLAVTTVDNGFKILANADGLRTLRAFGNRPFEAFRSQYEASSMKVSGAPVVAGISPNIGRMDHIDRNSPAKPSPIMNGGDPASRSIDIKPRISEERPDKAKPWELMEVLNAQQCRVATMPETPDQASKVVRLLYTNSGVGLLALGSNAIQRLWKWARNDQNPSGKATANVVPQHWQPNSGLVMQNDTADTNPEDAVPCIALSKNDSYVMSACGGKVSLFNMMTFKVMTTFMPPPPASTFLAFHPQDNNIIAIGMEDSTIHIYNVRVDEVKTRLKGHQRRITGLAFSNNLQILVSSGADAQLCVWATDTWEKKKSVAIQMPAGKTPSGDTWVQFNSDWSRLLVVHETQLAIYDASKMERIYQWIPQDALSAPISHASYSRNSQLVFAAFTDGNIGIFDVENLRLRCRIAPPAYLSSAAINSNPSVYPLVVAAHPQESNQFAVGLSDGSVKVIEPLESEGKWGTTPPTENGVPNGRTSTSSATSNPAADQIQR
B4: OsTPR1 TOPLESS domain (TPD), TPR1(1–209), tag removed (domain or fragment, rice, UniProt Q10NY2 1-209, looked up)
chain: MSSLSRELVFLILQFLDEEKFKETVHKLEQESGFYFNMKYFEDEVINGNWDEVERYLGGFTKVDDNRYSMKIFFEIRKQKYLEALDKHDRSKAVEILVKDLKVFASFNEELFKEITQLLTLENFRENEQLSKYGDTKSARAIMLVELKKLIEANPLFRDKLQFPNLKSSRLRTLINQSLNWQHQLCKNPRPNPDIKTLFVDHSCGQPNG
B5: Arabidopsis TPR3 TOPLESS domain (TPD), TPR3(1–209), tag removed (domain or fragment, UniProt Q84JM4 1-209, looked up)
chain: MSSLSRELVFLILQFLEEEKFKESVHRLEKESGFFFNTKYFDEKVLAGEWDDVETYLSGFTKVDDNRYSMKIFFEIRKQKYLEALDRQEKAKAVEILVQDLRVFSTFNEELYKEITQLLTLQNFRENEQLSKYGDTKTARGIMLGELKKLIEANPLFRDKLMFPTLRSSRLRTLINQSLNWQHQLCKNPRPNPDIKTLFTDHTCTLPNG
B6: Arabidopsis TPL TOPLESS domain (TPD), TPL(1–209), tag removed (domain or fragment, UniProt Q94AI7 1-209, looked up)
chain: MSSLSRELVFLILQFLDEEKFKETVHKLEQESGFFFNMKYFEDEVHNGNWDEVEKYLSGFTKVDDNRYSMKIFFEIRKQKYLEALDKHDRPKAVDILVKDLKVFSTFNEELFKEITQLLTLENFRENEQLSKYGDTKSARAIMLVELKKLIEANPLFRDKLQFPTLRNSRLRTLINQSLNWQHQLCKNPRPNPDIKTLFVDHSCGPPNG
B7: Arabidopsis TPR1 TOPLESS domain (TPD), TPR1(1–209), tag removed (domain or fragment, UniProt Q0WV90 1-209, looked up)
chain: B6 chain with K87R, N168T, G205R, P206L, G209D
B8: Arabidopsis TPR2 TOPLESS domain (TPD), TPR2(1–209), tag removed (domain or fragment, UniProt Q9LRZ0 1-209, looked up)
chain: MSSLSRELVFLILQFLDEEKFKESVHKLEQESGFFFNIKYFEEKALAGEWDEVEKYLSGFTKVDDNRYSMKIFFEIRKQKYLEALDRNDRAKAVEILAKDLKVFATFNEELYKEITQLLTLENFRENEQLSKYGDTKSARSIMYTELKKLIEANPLFREKLAFPSFKASRLRTLINQSLNWQHQLCKNPRPNPDIKTLFLDHSCSPSNG
B9: OsTPL TOPLESS domain (TPD), TPL(1–209), tag removed (domain or fragment, rice, UniProt Q0J7U6 1-209, looked up)
chain: MSSLSRELVFLILQFLDEEKFKETVHKLEQESAFYFNMKHFEDLVQGGEWDEVEKYLSGFTKVEDNRYSMKIFFEIRKQKYLEALDRHDRAKAVEILVKDLKVFASFNEELFKEITQLLTLENFRQNEQLSKYGDTKSARNIMLMELKKLIEANPLFRDKLNFPPFKVSRLRTLINQSLNWQHQLCKNPRPNPDIKTLFTDHSCAAPTN

Columns and labels:
[1] = target: H6-tagged OsTPR2 N-terminal domain (TPD), TPR2(1–210) (rice) (UniProt Q5NBT9); assay: AlphaScreen or HTRF
[2] = target: TraM-NINJA EAR fusion protein (tetrameric), untagged (not stated | Arabidopsis); assay: SEC
crystal structure = target: the molecule itself; assay: crystal structure
SEC = target: the molecule itself; assay: SEC
[3] = target: T1, Gal4 DBD-NINJA full length (Arabidopsis, UniProt Q9SV55 1-425); assay: two-hybrid
T1 sequence (looked up): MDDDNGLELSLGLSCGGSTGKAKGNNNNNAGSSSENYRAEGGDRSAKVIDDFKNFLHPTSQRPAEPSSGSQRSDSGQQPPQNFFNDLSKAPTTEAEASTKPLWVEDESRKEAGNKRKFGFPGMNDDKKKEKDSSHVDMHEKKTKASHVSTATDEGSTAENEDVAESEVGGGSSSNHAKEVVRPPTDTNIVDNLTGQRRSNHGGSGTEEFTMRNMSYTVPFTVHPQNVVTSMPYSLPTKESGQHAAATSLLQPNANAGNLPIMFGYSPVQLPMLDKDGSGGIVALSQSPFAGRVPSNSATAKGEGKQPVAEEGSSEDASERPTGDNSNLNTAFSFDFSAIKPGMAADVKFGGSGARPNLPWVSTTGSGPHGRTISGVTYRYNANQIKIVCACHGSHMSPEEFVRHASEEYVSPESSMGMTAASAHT

[4] = target: T2, H6-tagged OsTPR2 N-terminal domain (TPD), TPR2(1–210) (rice, UniProt Q5NBT9 1-210); assay: AlphaScreen or HTRF
T2 sequence (looked up): B1 chain

| Molecule | stoichiometry N (SEC) | also measured |
| --- | --- | --- |
| TraM-NINJA EAR fusion protein (tetrameric), untagged | – | IC50 [1]: 0.16 µM; stoichiometry N [2]: 4 |
| B1 | – | stoichiometry N (crystal structure): 4 |
| B2 | 4 | – |
| B3 | – | luciferase reporter activation above background [3]: ~2 fold |
| B4 | 4 | – |
| DNGLELSLGLSC [monomeric NINJA EAR motif peptide (12 amino acids, untagged)] | – | IC50 [4]: 38 µM |
| B5 | 4 | – |
| B6 | 4 | – |
| B7 | 4 | – |
| B8 | 4 | – |
| B9 | 4 | – |
